Two molecules from patent WO2021244601A1 (dated 2021) can be followed below.

Experiment in all cases: cell-based or functional assay
For test [1], the target named is S protein on pseudovirus of B.1.1.7 strain (hCoV-19/England/QEUH-F56F0F/2021) (SARS-CoV-2 B.1.1.7 strain).
Test [2] concerns the target S protein on pseudovirus of p.1 strain (SARS-CoV-2 p.1 strain).
Test [3] has as its target S protein on pseudovirus of B.1.351 strain (SARS-CoV-2 B.1.351 strain).

B1: CA304 (antibody, V domains shown)
VH: EVQLQQWGAGLLKPSETLSLTCAVYGGSFSGYYWSWIRQPPGKGLEWIGEVNHSGSTNYNPSLKSRVTISVDTSKNQLSLKLNSVTAADTAVYYCARGNTMVRGVIIPFEYWDKGTLVTVSS
VL: DIVMTQTPLSLPVTLGQPASISCRSSQSLVHSDGNTYLNWFQQRPGQSPRRLIYKVSNRDSGVPDRFSGSGAGTDFTLKISRVEAEDVGVYYCTQATQFPFTFGPGTKVDIKR
Take B1: the results for the “IC50, pseudovirus neutralisation (method as 3.15)” value in test [1], in test [2] and in test [3] were 4.06 nM, 3.53 nM and 12.2 nM, respectively.

B2: CA555 (antibody, V domains shown)
VH: B1 VH
VL: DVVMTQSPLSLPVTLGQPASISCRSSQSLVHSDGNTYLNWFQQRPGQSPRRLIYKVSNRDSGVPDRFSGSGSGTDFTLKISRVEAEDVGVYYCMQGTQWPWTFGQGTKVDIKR
With B2, the “IC50, pseudovirus neutralisation (method as 3.15)” value amounted to 3.17 nM in test [1], 1.58 nM in test [2] and 13.9 nM in test [3].
